Test results from publication PMC10270636.
Each block holds one molecule with its values, some of them ahead of it.

How the values were obtained:
Experiment in all cases: SEC; TSK-Gel G2000SWXL 7.8 x 300 mm column, Waters Alliance HPLC, detection at 220 nm; lyophilizate dissolved in water for injection and diluted, measured directly; peaks assigned as aggregates, tetramer and monomer
P00805 = system: P00805
[1] = biological target: Spectrila (recombinant E. coli-derived L-asparaginase) (E. coli), P00805
[2] = biological target: Onconase (E. coli-derived L-asparaginase preparation from India) (E. coli), P00805

Molecule: Spectrila (recombinant E. coli-derived L-asparaginase)
percent tetramer (SEC peak area) (P00805): 99.4%

Molecule: Onconase (E. coli-derived L-asparaginase preparation from India)
percent tetramer (SEC peak area) (P00805): 82.7%[*]

stoichiometry N [1]: 4
B1: Spectrila (recombinant E. coli-derived L-asparaginase), P00805 23-348 (enzyme)
chain: LPNITILATGGTIAGGGDSATKSNYTVGKVGVENLVNAVPQLKDIANVKGEQVVNIGSQDMNDDVWLTLAKKINTDCDKTDGFVITHGTDTMEETAYFLDLTVKCDKPVVMVGAMRPSTSMSADGPFNLYNAVVTAADKASANRGVLVVMNDTVLDGRDVTKTNTTDVATFKSVNYGPLGYIHNGKIDYQRTPARKHTSDTPFDVSKLNELPKVGIVYNYANASDLPAKALVDAGYDGIVSAGVGNGNLYKTVFDTLATAAKTGTAVVRSSRVPTGATTQDAEVDDAKYGFVASGTLNPQKARVLLQLALTQTKDPQQIQQIFNQY
modifications: not checked

stoichiometry N [2]: 4
B2: Onconase (E. coli-derived L-asparaginase preparation from India), P00805 23-348 (enzyme)
chain: B1 chain
modifications: not checked
